Laboratory results reported in patent publication US20190284299A1 (BEIJING HANMI PHARMACEUTICAL, published 2019).

Legend:
Trop-2 on BxPC3 cells = target: T1, Trop-2 on BxPC3 cells (UniProt P09758 27-323, limits assumed); test: flow cytometry of PKH26-stained BxPC3 and CFSE-stained Jurkat cells, as in Example 9
T1 construct: whole, on cells; also called BxPC3 cells with high expression Trop-2
T1 sequence (looked up): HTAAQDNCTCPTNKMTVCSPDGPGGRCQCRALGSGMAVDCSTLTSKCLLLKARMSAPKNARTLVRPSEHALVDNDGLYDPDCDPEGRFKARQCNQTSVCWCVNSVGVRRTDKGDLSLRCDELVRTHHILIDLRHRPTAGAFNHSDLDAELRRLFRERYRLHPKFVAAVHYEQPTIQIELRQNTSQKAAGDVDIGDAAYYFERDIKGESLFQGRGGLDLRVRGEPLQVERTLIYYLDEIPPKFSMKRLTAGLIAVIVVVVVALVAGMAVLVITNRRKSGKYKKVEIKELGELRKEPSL

[1] = target: T2, recombinant human Trop-2 (Sino Biological, Cat. No: 10428-H08H) (human, UniProt P09758 27-274); test: ELISA, recombinant human Trop-2 coated at 1 ug/mL, anti-human IgG-HRP
T2 construct: Coated on the ELISA plate
T2 sequence (looked up): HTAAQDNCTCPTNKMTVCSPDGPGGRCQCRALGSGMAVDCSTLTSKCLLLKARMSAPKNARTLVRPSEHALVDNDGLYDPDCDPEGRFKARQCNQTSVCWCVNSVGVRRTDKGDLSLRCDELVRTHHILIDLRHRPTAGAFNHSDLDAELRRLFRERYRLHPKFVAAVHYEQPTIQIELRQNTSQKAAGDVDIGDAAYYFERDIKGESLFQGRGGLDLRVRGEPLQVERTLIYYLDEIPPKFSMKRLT

B1: heterodimeric anti-Trop-2/anti-CD3-scFv bispecific antibody (bispecific antibody)
heavy: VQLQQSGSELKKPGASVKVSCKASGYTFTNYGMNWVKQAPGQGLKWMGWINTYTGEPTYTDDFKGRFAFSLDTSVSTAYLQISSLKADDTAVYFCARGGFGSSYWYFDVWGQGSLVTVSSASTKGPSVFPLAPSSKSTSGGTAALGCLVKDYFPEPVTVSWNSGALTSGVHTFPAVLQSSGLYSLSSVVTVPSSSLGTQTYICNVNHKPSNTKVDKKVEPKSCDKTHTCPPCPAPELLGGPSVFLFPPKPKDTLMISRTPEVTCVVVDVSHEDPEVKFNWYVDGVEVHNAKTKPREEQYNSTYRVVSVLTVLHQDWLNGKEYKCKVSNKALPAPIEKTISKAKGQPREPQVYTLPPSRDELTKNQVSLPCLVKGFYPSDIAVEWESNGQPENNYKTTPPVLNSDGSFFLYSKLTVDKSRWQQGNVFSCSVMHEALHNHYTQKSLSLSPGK
light: DIQLTQSPSSLSASVGDRVSITCKASQDVSIAVAWYQQKPGKAPKLLIYSASYRYTGVPDRFSGSGSGTDFTLTISSLQPEDFAVYYCQQHYITPLTFGAGTKVEIKRTVAAPSVFIFPPSDEQLKSGTASVVCLLNNFYPREAKVQWKVDNALQSGNSQESVTEQDSKDSTYSLSSTLTLSKADYEKHKVYACEVTHQGLSSPVTKSFNRGEC
scFv: not shown
notes: also called anti-Trop2/anti CD3-scFv heterodimer; Anti-Trop-2/CD3 heterodimeric BsAb
binding result (Trop-2 on BxPC3 cells): binds
binding result [1]: binds
